Measurements published in patent US20180057604A1 (Genentech, published 2018).

T1: cyno TfR extracellular domain (analogous construct to human TfR ecd) (cynomolgus monkey, UniProt Q5RDH6 87-760 (Pongo abelii entry))
T1 construct: also called cynoTfR ecd
T1 chain: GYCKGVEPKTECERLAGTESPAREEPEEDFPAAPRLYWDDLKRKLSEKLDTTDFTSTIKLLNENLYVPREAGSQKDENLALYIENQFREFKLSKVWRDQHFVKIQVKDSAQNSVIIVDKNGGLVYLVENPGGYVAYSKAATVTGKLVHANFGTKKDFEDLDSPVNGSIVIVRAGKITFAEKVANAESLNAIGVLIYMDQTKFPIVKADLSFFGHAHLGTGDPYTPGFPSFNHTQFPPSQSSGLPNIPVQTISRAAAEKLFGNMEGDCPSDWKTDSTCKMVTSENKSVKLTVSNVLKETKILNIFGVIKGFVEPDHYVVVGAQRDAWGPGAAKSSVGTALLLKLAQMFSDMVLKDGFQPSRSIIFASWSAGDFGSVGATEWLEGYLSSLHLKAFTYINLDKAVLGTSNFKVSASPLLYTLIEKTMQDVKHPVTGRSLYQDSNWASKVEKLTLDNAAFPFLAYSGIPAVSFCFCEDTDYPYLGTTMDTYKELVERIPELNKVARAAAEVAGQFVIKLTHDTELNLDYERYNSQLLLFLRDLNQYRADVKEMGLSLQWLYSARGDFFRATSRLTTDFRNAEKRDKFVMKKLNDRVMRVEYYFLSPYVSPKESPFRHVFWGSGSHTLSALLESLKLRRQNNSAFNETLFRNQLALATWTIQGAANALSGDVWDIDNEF


Legend:
[1] = target: BACE1 in primary mouse cortical neurons (mouse, UniProt P56818 46-501); test: cell-based or functional assay
Chain of BACE1 in primary mouse cortical neurons (P56818 46-501): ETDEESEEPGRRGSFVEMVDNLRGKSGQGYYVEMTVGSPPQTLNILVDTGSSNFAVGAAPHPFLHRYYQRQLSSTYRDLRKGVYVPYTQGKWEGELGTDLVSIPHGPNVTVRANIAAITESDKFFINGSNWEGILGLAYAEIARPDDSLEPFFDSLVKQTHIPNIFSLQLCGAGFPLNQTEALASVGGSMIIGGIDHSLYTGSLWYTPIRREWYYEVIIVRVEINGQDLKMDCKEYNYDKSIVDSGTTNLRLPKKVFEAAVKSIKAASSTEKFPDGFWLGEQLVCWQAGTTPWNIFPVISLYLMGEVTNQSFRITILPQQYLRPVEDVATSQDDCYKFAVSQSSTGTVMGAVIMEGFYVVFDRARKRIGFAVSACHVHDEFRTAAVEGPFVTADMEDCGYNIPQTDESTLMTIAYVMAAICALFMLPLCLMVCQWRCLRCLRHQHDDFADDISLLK

murine BACE1 ECD [2] = target: T2, murine BACE1 ECD; test: Octet, pH 5.0
T2 construct: analyte of the Octet assay (200 nM) and enzyme of the first short substrate assay
T2 sequence (single chain, as listed by the source limits assumed): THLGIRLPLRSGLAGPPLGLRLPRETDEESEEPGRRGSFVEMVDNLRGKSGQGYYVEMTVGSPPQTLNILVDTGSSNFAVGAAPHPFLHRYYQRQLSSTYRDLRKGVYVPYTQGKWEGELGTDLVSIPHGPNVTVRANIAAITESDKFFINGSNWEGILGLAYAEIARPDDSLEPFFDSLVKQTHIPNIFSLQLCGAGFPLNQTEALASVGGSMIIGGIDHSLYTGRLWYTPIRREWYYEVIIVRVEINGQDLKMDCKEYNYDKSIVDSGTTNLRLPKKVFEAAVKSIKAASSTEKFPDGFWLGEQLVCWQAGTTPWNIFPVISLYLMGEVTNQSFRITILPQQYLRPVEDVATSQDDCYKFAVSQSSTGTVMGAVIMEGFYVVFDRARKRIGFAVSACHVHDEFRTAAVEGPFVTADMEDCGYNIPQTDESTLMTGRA
Procedure: (§1) Anti-BACE1 antibodies were loaded onto anti-human capture (AHC) sensors (tips) followed by 60 seconds baseline in assay buffer. […] Tips were transferred to assay buffer for 5 minutes, 30 minutes, or 120 minutes depending on the off-rate, for off-rate measurement. Assay buffer was either PBS+0.1% BSA, pH 7.5; or PBS+0.1% BSA, pH 5.0. Kinetics were analyzed using a 1:1 binding model.

human BACE1 ECD [3] = target: T3, human BACE1 ECD; test: Octet, pH 5.0
T3 construct: analyte of the Octet assay (200 nM) and enzyme of the first short substrate assay; also called human BACE1 extracellular domain
T3 sequence (single chain, as listed by the source limits assumed): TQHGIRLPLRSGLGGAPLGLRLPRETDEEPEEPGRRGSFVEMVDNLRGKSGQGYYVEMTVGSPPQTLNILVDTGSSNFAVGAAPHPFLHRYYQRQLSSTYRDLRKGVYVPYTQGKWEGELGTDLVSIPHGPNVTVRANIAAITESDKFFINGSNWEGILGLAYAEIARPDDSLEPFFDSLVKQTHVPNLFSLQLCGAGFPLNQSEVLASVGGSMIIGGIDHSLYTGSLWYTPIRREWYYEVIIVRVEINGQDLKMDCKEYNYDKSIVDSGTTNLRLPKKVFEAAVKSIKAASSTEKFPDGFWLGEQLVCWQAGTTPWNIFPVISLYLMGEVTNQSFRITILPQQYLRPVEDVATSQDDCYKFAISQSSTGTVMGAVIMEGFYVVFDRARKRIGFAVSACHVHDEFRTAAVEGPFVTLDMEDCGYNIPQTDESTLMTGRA
Procedure: as §1

murine BACE1 ECD [4] = target: T2, murine BACE1 ECD; test: Octet, pH 7.5
Procedure: as §1

human BACE1 ECD [5] = target: T3, human BACE1 ECD; test: Octet, pH 7.5
Procedure: as §1

[6] = target: T4, human TfR extracellular domain with N-terminal His tag (human, UniProt P02786 89-760); test: SPR SCK 1:1 fit, IgG
T4 construct: Biotinylated in some assays; also called huTfR; HuTfR
T4 sequence (P02786 89-760 G142S): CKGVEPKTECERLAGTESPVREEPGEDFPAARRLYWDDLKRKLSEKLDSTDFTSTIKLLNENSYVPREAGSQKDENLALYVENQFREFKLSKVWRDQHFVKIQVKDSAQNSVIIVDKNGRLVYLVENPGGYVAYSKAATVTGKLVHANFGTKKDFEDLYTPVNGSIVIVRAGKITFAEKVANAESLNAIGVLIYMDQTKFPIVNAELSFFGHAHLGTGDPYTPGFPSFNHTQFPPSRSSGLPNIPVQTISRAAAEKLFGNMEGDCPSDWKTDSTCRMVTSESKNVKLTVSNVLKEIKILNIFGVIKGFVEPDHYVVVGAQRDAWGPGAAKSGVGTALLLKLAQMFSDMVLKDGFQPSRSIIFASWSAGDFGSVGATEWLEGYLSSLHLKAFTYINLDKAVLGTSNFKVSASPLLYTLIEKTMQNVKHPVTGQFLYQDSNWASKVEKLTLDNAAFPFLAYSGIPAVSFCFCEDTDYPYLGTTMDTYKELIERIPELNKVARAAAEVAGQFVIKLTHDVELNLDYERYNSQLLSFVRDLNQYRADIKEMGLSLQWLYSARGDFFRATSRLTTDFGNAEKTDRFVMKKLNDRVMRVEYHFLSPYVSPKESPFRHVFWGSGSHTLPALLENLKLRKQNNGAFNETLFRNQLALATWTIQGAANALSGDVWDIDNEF
Procedure: (§2) Antibody affinities were measured using surface plasmon resonance (“SPR”) (Biacore™, GE Healthcare). Anti-His antibody (Qiagen) was coupled onto four different flow cells of a BIACORE™ CM5 sensor chip (Biacore, Inc., Piscataway, N.J.) at between 6000 and 8000 RU. Immobilization was achieved by random coupling through amino groups using a protocol provided by the manufacturer. 10×HBS-P (Biacore, Inc., Piscataway, N.J.) was diluted in water and served as the dilution and running buffer. Purified human or cyno TfR was captured, followed by a 3-fold dilution series of IgG or Fab that was injected at a flow rate of 30 ml/min using the single cycle kinetics method. Affinity constants were determined using a simple 1:1 Langmuir binding model or using a steady state model when kₒₙ or koff was beyond the detection limit. The equilibrium dissociation constant (KD) was calculated as the ratio of association rate constant (kₒₙ) and dissociation rate constant (koff).
(§3) These variants were screened as IgG by ELISA and SPR to identify positions important for binding to human and cyno TfR; the monovalent affinity of selected variants as Fab was also determined. […] Plates were washed with PBS/0.05% Tween 20 and blocked using Superblock blocking buffer in PBS (Thermo Scientific, Hudson, N.H.). Supernatants containing expressed IgG were diluted serially 1:5 and added to the plate for 1 h. […] Plates were washed with PBS/0.05% Tween 20 and 1:1000 diluted HRP-Goat-anti kappa (Southern Biotech) was added the plate and incubated for 1 h at room temperature. Plates were washed with PBS/0.05% Tween 20 and detected using TMB substrate (BioFX Laboratories, Owings Mills). Binding was also assessed by SPR, as described above.

[7] = target: T4, human TfR extracellular domain with …; test: ELISA, IgG
Procedure: (§4) Affinity variants were generated by making individual alanine substitutions in CDR-L3 or CDR-H3 using standard techniques. These variants were screened as IgG by ELISA and SPR to identify positions important for binding to human and cyno TfR; the monovalent affinity of selected variants as Fab was also determined. […] Plates were washed with PBS/0.05% Tween 20 and blocked using Superblock blocking buffer in PBS (Thermo Scientific, Hudson, N.H.). Supernatants containing expressed IgG were diluted serially 1:5 and added to the plate for 1 h. […] Plates were washed with PBS/0.05% Tween 20 and 1:1000 diluted HRP-Goat-anti kappa (Southern Biotech) was added the plate and incubated for 1 h at room temperature. Plates were washed with PBS/0.05% Tween 20 and detected using TMB substrate (BioFX Laboratories, Owings Mills).

[8] = target: T1, cyno TfR extracellular domain …; test: ELISA, IgG
Procedure: as §4

[9] = target: T4, human TfR extracellular domain with …; test: SPR steady state, IgG
Procedure: as §2, §3

[10] = target: T1, cyno TfR extracellular domain …; test: SPR, TfR captured by anti-His, Fab injected
Procedure: as §2
In both cases, the SPR experiments were performed as described above.

[11] = target: T4, human TfR extracellular domain with …; test: SPR, Fab
Procedure: as §2, §3

Row | IC50, Abeta x-40 in mouse cortical neurons [1] | maximal % inhibition of Abeta x-40 [1] | Kd (murine BACE1 ECD [2]) | Kd (human BACE1 ECD [3]) | Kd (murine BACE1 ECD [4]) | Kd (human BACE1 ECD [5]) | Kd [6] | EC50 [7] | EC50 [8] | Kd [9] | Kd [10] | Kd [11] | Binder
1 | 0.45 nM | 68% | < 0.17 nM | < 0.13 nM | < 0.15 nM | < 0.14 nM |  |  |  |  |  |  | 6307 (antibody, V domains shown, anti-BACE1 IgG) VH: QLQLQESGPGLVKPSETLSLTCTVSGGSISWSSYYWSWIRQPPGKGLEWIGSIYRSGRTYYNPSLKGRVTISVDTSKNQFSLKLSSVTAADTAVYYCARVGHGINYFDLWGRGTLVTVSS VL: EIVLTQSPATLSLSPGERATLSCRASQSVSSYLAWYQQKPGQAPRLLIYDASNRATGIPARFSGSGSGTDFTLTISSLEPEDFAVYYCQQSIVWPPRTFGGGTKVEIK
2 | 0.15 nM | 63% | 0.21 nM | 0.2 nM | 0.24 nM | 0.25 nM |  |  |  |  |  |  | 6311 (antibody, V domains shown, anti-BACE1 IgG) VH: QLQLQESGPGLVKPSETLSLTCTVSGGSISWSSYYWSWIRQPPGKGLEWIGSIYRSGRTYYNPSLKSRVTISVDTSKNQFSLKLSSVTAADTAVYYCARVGHGINYFDLWGRGTLVTVSS VL: EIVLTQSPATLSLSPGERATLSCRASQSVSSYLAWYQQKPGQAPRLLIYDASNRATGIPARFSGSGSGTDFTLTISSLEPEDFAVYYCQQSLTWPPRTFGGGTKVEIK
3 | 3.38 nM | 71% | < 0.26 nM | < 0.22 nM | 0.33 nM | 0.38 nM |  |  |  |  |  |  | 6314 (antibody, V domains shown, anti-BACE1 IgG) VH: QLQLQESGPGLVKPSETLSLTCTVSGGSISRGSYYWGWIRQPPGKGLEWIGMIYYSGSTWYNPSLKSRVTISVDTSKNQFSLKLSSVTAADTAVYYCARVGHGVSYFDLWGRGTLVTVSS VL: EIVLTQSPATLSLSPGERATLSCRASQSVSSYLAWYQQKPGQAPRLLIYDASNRATGIPARFSGSGSGTDFTLTISSLEPEDFAVYYCQQSIVWPPRTFGGGTKVEIK
4 | 0.3 nM | 60% | 0.37 nM | 0.35 nM | 0.32 nM | 0.34 nM |  |  |  |  |  |  | 6309 (antibody, V domains shown, anti-BACE1 IgG) VH: QLQLQESGPGLVKPSETLSLTCTVSGGSISWSSYYWSWIRQPPGKGLEWIGSIYRSGRTYYNPSLKSRVTISVDTSKNQFSLKLSSVTAADTAVYYCARVGHGINYFDLWGRGTLVTVSS VL: EIVLTQSPATLSLSPGERATLSCRASQSVSSYLAWYQQKPGQAPRLLIYDASNRATGIPARFSGSGSGTDFTLTISSLEPEDFAVYYCQQSITWPPRTFGGGTKVEIK
5 |  | 73% | < 0.25 nM | < 0.21 nM | < 0.26 nM | < 0.25 nM |  |  |  |  |  |  | 6315 (antibody, V domains shown, anti-BACE1 IgG) VH: QLQLQESGPGLVKPSETLSLTCTVSGGSISRGSYYWGWIRQPPGKGLEWIGMIYYSGSTWYNPSLKSRVTISVDTSKNQFSLKLSSVTAADTAVYYCARVGHGVSYFDLWGRGTLVTVSS VL: EIVLTQSPATLSLSPGERATLSCRASQSVSSYLAWYQQKPGQAPRLLIYDASKRATGIPARFSGSGSGTDFTLTISSLEPEDFAVYYCQQSLVWPPRTFGGGAKVEIK
6 | 2.78 nM | 67% | < 0.24 nM | < 0.21 nM | 0.27 nM | 0.41 nM |  |  |  |  |  |  | 6313 (antibody, V domains shown, anti-BACE1 IgG) VH: QLQLQESGPGLVKPSETLSLTCTVSGGSISRGSYYWGWIRQPPGKGLEWIGMIYYSGSTWYNPSLKSRVTISVDTSKNQFSLKLSSVTAADTAVYYCARVGHGVSYFDLWGRGTLVTVSS VL: EIVLTQSPATLSLSPGERATLSCRASQSVSSYLAWYQQKPGQAPRLLIYDASNRATGIPARFSGSGSGTDFTLTISSLEPEDFAVYYCQQAYVWPPRTFGGGTKVEIK
7 | 0.68 nM | 60% | < 0.17 nM | < 0.14 nM | < 0.15 nM | < 0.14 nM |  |  |  |  |  |  | 6308 (antibody, V domains shown, anti-BACE1 IgG) VH: QLQLQESGPGLVKPSETLSLTCTVSGGSISWSSYYWSWIRQPPGKGLEWIGSIYRSGRTYYNPSLKSRVTISVDTSKNQFSLKLSSVTAADTAVYYCARVGHGINYFDLWGRGTLVTVSS VL: EIVLTQSPATLSLSPGERATLSCRASQSVSSYLAWYQQKPGQAPRLLIYDASKRATGIPARFSGSGSGTDFTLTISSLEPEDFAVYYCQQSLVWPPRTFGGGTKVEIK
8 |  |  |  |  |  |  | 167 nM | 0.0458 µg/mL | 0.953 µg/mL | 228 nM |  |  | F91A (antibody, V domains shown, also called 15G11.v5 F91A (CDR-L3) IgG) VH: EVQLVQSGAEVKKPGASVKVSCKASGYTFTSYWMHWVRQAPGQRLEWIGEINPTNGRTNYIEKFKSRATLTVDKSASTAYMELSSLRSEDTAVYYCARGTRAYHYWGQGTMVTVSS VL: DIQMTQSPSSLSASVGDRVTITCRASDNLYSNLAWYQQKPGKSPKLLVYDATNLADGVPSRFSGSGSGTDYTLTISSLQPEDFATYYCQHAWGTPLTFGQGTKVEIK
9 |  |  |  |  |  |  |  |  |  |  | 48 nM |  | Hu15G11.HC32A Fab (Fab, V domains shown, Fab) VH: EVQLVQSGAEVKKPGASVKVSCKASGYTFTSAWMHWVRQAPGQRLEWIGEINPTNGRTNYIEKFKSRATLTVDKSASTAYMELSSLRSEDTAVYYCARGTRAYHYWGQGTMVTVSS VL: DIQMTQSPSSLSASVGDRVTITCRASDNLYSNLAWYQQKPGKSPKLLVYDATNLADGVPSRFSGSGSGTDYTLTISSLQPEDFATYYCQHFWGTPLTFGQGTKVEIK
10 |  |  |  |  |  |  |  |  |  |  |  | 383 nM | F91A (Fab, V domains shown, also called 15G11.v5 F91A (CDR-L3) Fab) VH: EVQLVQSGAEVKKPGASVKVSCKASGYTFTSYWMHWVRQAPGQRLEWIGEINPTNGRTNYIEKFKSRATLTVDKSASTAYMELSSLRSEDTAVYYCARGTRAYHYWGQGTMVTVSS VL: DIQMTQSPSSLSASVGDRVTITCRASDNLYSNLAWYQQKPGKSPKLLVYDATNLADGVPSRFSGSGSGTDYTLTISSLQPEDFATYYCQHAWGTPLTFGQGTKVEIK
11 |  |  |  |  |  |  | 173 nM | 0.274 µg/mL | 3.38 µg/mL | 433 nM |  |  | T96A (antibody, V domains shown, also called 15G11.v5 T96A (CDR-H3) IgG; copies: 2 + 2) VH: EVQLVQSGAEVKKPGASVKVSCKASGYTFTSYWMHWVRQAPGQRLEWIGEINPTNGRTNYIEKFKSRATLTVDKSASTAYMELSSLRSEDTAVYYCARGARAYHYWGQGTMVTVSS VL: DIQMTQSPSSLSASVGDRVTITCRASDNLYSNLAWYQQKPGKSPKLLVYDATNLADGVPSRFSGSGSGTDYTLTISSLQPEDFATYYCQHFWGTPLTFGQGTKVEIK
12 |  |  |  |  |  |  |  |  |  |  |  | 280 nM | W92A (Fab, V domains shown, also called 15G11.v5 W92A (CDR-L3) Fab) VH: EVQLVQSGAEVKKPGASVKVSCKASGYTFTSYWMHWVRQAPGQRLEWIGEINPTNGRTNYIEKFKSRATLTVDKSASTAYMELSSLRSEDTAVYYCARGTRAYHYWGQGTMVTVSS VL: DIQMTQSPSSLSASVGDRVTITCRASDNLYSNLAWYQQKPGKSPKLLVYDATNLADGVPSRFSGSGSGTDYTLTISSLQPEDFATYYCQHFAGTPLTFGQGTKVEIK
13 |  |  |  |  |  |  | 31 nM | 0.0118 µg/mL |  | 123 nM |  |  | W92A (antibody, V domains shown, also called 15G11.v5 W92A (CDR-L3) IgG; 15G11.W92A) VH: EVQLVQSGAEVKKPGASVKVSCKASGYTFTSYWMHWVRQAPGQRLEWIGEINPTNGRTNYIEKFKSRATLTVDKSASTAYMELSSLRSEDTAVYYCARGTRAYHYWGQGTMVTVSS VL: DIQMTQSPSSLSASVGDRVTITCRASDNLYSNLAWYQQKPGKSPKLLVYDATNLADGVPSRFSGSGSGTDYTLTISSLQPEDFATYYCQHFAGTPLTFGQGTKVEIK
